For 34 sequences, Kd and IC50 results are on record in the Immune Epitope Database (IEDB).

pIC50, pKd: −log10 of the molar value.

By pKd is commonly meant the negative decadic logarithm of the Kd, by convention in mol/L. Broadly, the pIC50 is the IC50 on a negative log10 scale, so that one unit is a factor of ten. A low value points to a high IC50.

For assay [1], the target named is HLA-A*01:01. Description: IEDB peptide-MHC binding, purified MHC/competitive/fluorescence; filed as Kd, often an IC50 or EC50 that approximates it; ≥ and ≤ were set here for values at or beyond the usual limits of such assays.
Assay [2] deals with HLA-A*03:01. Description: IEDB peptide-MHC binding, purified MHC/direct/fluorescence; filed as Kd, often an IC50 or EC50 that approximates it; ≥ and ≤ were set here for values at or beyond the usual limits of such assays.
The target of assay [3] is HLA-A*11:01. The assay is described as above.
Assay [4] concerns the target HLA-A*31:01. The assay can be described thus: IEDB peptide-MHC binding, purified MHC/competitive/fluorescence; filed as Kd, often an IC50 or EC50 that approximates it; ≥ and ≤ were set here for values at or beyond the usual limits of such assays.
Assay [5] has as its target HLA-B*15:01. The assay can be described thus: IEDB peptide-MHC binding, purified MHC/competitive/fluorescence; ≥ and ≤ were set here for values at or beyond the usual limits of such assays.
Assay [6] concerns the target HLA-A*24:02. The description is as above.
Assay [7] concerns the target HLA-B*57:01. Description: IEDB peptide-MHC binding, purified MHC/competitive/radioactivity; filed as Kd, often an IC50 or EC50 that approximates it; ≥ and ≤ were set here for values at or beyond the usual limits of such assays.
Assay [8] addresses HLA-B*58:01. The description is as above.
The target in assay [9] is HLA-A*32:01. The assay is described as above.
Assay [10] addresses HLA-B*15:17. Description: IEDB peptide-MHC binding, purified MHC/direct/fluorescence; filed as Kd, often an IC50 or EC50 that approximates it; ≥ and ≤ were set here for values at or beyond the usual limits of such assays.
The target in assay [11] is HLA-A*24:03. The assay can be described thus: IEDB peptide-MHC binding, purified MHC/competitive/fluorescence; filed as Kd, often an IC50 or EC50 that approximates it; ≥ and ≤ were set here for values at or beyond the usual limits of such assays.
Assay [12] concerns the target HLA-A*01:01. The assay can be described thus: IEDB peptide-MHC binding, purified MHC/direct/fluorescence; filed as Kd, often an IC50 or EC50 that approximates it; ≥ and ≤ were set here for values at or beyond the usual limits of such assays.
Assay [13] deals with HLA-B*08:01. The assay is described as above.
The target of assay [14] is HLA-A*69:01. Described as above.
Assay [15] concerns the target HLA-B*40:01. The assay is described as above.
The target in assay [16] is HLA-B*15:01. The description is as above. Particulars: source organism: Giardia lamblia ATCC 50803.
Assay [17] concerns the target HLA-B*27:05. Described as above.
The target of assay [18] is HLA-B*44:02. Described as above.
In assay [19] the target is HLA-B*07:02. The description is as above.
Assay [20] addresses HLA-A*02:01. The assay is described as above.
In assay [21] the target is HLA-B*57:01. The description is as above.
In assay [22] the target is HLA-A*26:01. The assay is described as above.
In assay [23] the target is HLA-B*58:01. The description is as above.
The target in assay [24] is HLA-A*31:01. The assay is described as above.
For assay [25], the target named is HLA-A*03:01. The assay can be described thus: IEDB peptide-MHC binding, purified MHC/competitive/fluorescence; ≥ and ≤ were set here for values at or beyond the usual limits of such assays. To be noted: source organism: Zaire ebolavirus.
The target in assay [26] is HLA-A*11:01. Described as above. To be noted: source organism: Zaire ebolavirus.
Assay [27] has as its target HLA-A*02:01. The assay is described as above.
For assay [28], the target named is HLA-A*03:01. Description: IEDB peptide-MHC binding, purified MHC/competitive/fluorescence; filed as Kd, often an IC50 or EC50 that approximates it; ≥ and ≤ were set here for values at or beyond the usual limits of such assays. Particulars: source organism: Salmonella enterica subsp. enterica serovar Typhi.
In assay [29] the target is HLA-A*02:01. The assay is described as above. To be noted: source organism: Escherichia coli.
Assay [30] deals with HLA-B*18:01. The assay can be described thus: IEDB peptide-MHC binding, purified MHC/direct/fluorescence; filed as Kd, often an IC50 or EC50 that approximates it; ≥ and ≤ were set here for values at or beyond the usual limits of such assays. To be noted: source organism: Orthohantavirus hantanense.
Setting [31] is: source organism: Burkholderia mallei.
Where [32] appears, read: source organism: Yellow fever virus.
The mark [33] stands for this setting: source organism: Vaccinia virus Copenhagen.
[34] abbreviates: source organism: Dengue virus 3 Martinique/1243/1999.
[35] abbreviates: source organism: Escherichia coli.
[36] abbreviates: source organism: Brucella abortus 2308.
The mark [37] stands for this setting: source organism: Zaire ebolavirus.
[38] abbreviates: source organism: Dengue virus 1 Brazil/97-11/1997.
[39] abbreviates: source organism: Yersinia pestis Antiqua.
[40] abbreviates: source organism: Giardia lamblia ATCC 50803.
Where [41] appears, read: source organism: Dengue virus 2 Jamaica/1409/1983.
Setting [42] is: source organism: Camelpox virus M-96.
Where [43] appears, read: source organism: Vaccinia virus WR.
[44] abbreviates: source organism: Bacillus anthracis.
Where [45] appears, read: source organism: Vibrio cholerae.
[46] abbreviates: source organism: Marburg virus - Musoke, Kenya, 1980.
The mark [47] stands for this setting: source organism: Orthohantavirus hantanense.

MLASIDLKY gave a negative-log Kd (pKd) in assay [1] (source organism: Influenza A virus (A/swine/Finistere/127/99(H3N2))) of 6.37.

Turning to RVYRRRLAQ, the pKd in assay [2] (setting [31]) is 6.49; in assay [3] (setting [31]) it was not above 4.70; in assay [4] (source organism: Burkholderia pseudomallei 1106a), 7.39.

Sequence FHKNMIKTY gave a pIC50 in assay [5] (source organism: Vaccinia virus) of 4.66.

KVVNRWLFR: the values for the pKd in [3] (setting [32]) and in assay [4] (setting [32]) were 8.35 and 8.96, respectively.

For KAIITPIVF, the pIC50 in [5] (setting [33]) is 4.80; in assay [6] (setting [33]), 4.95.

Take RVMGITAEW: the pKd in assay [7] (setting [34]) is 8.53; in [8] (setting [34]), 9.08; in assay [9] (setting [34]), 7.44.

In [10] (setting [35]), RTAFLRFWL showed a negative logarithm of the Kd (pKd) of 8.82.

With GWTETDSSF, in assay [11] (source organism: Influenza A virus (A/parrot/Ulster/73(H7N1))), the pKd was 6.52.

As for RQMLHEIGR, the negative-log Kd (pKd) was 5.49 in assay [2] (setting [36]), 6.18 in assay [3] (setting [36]) and 8.93 in assay [4] (source organism: Paramagnetospirillum magnetotacticum MS-1).

In turn, RQRVIPVYQ gave a negative logarithm of the IC50 (pIC50) in assay [5] (setting [37]) of 5.20.

In the case of KSWLVHKQW, the pKd in [7] (setting [38]) is 8.23; in assay [8] (setting [38]), 8.52; in [9] (setting [38]), 7.77.

KFHQIEKEF gave a negative-log Kd (pKd) in assay [11] (source organism: Influenza A virus (A/swine/Hong Kong/81/1978(H3N2))) of 9.22.

Take WIYDPRNQK: the figures for the pKd in [2] (setting [39]), in [3] (setting [39]) and in [4] (setting [39]) were 7.53, 6.43 and 6.97, respectively.

In turn, VSFNQNLEY had a negative logarithm of the Kd (pKd) in assay [1] (source organism: Influenza A virus (A/goose/Guangdong/1/1996(H5N1))) of 7.59.

In assay [1] (source organism: Escherichia coli APEC O1), ASDHFVETT had a pKd not above 4.70.

As for KLLQICMWF, the pKd is not above 4.70 in [12] (setting [40]); not above 4.70 in assay [13] (setting [40]); not above 4.70 in assay [14] (setting [40]); not above 4.70 in assay [15] (setting [40]); 4.78 in assay [16]; not above 4.70 in [17] (setting [40]). The negative-log Kd (pKd) was not above 4.70 in assay [18] (setting [40]); not above 4.70 in [2] (setting [40]); not above 4.70 in assay [19] (setting [40]); not above 4.70 in assay [3] (setting [40]); 5.47 in assay [20] (setting [40]); not above 4.70 in [21] (setting [40]). Besides, the pKd in assay [22] (setting [40]) was not above 4.70; in assay [23] (setting [40]), 5.83.

As for KSYAQMWTL, the figures for the pKd in [7] (setting [41]), in [8] (setting [41]) and in [9] (setting [41]) were 8.18, 8.20 and 7.79, respectively.

Regarding EFFDTEPQL, the negative logarithm of the Kd (pKd) is not above 4.70 in assay [12] (setting [40]); not above 4.70 in assay [13] (setting [40]); not above 4.70 in assay [14] (setting [40]); 5.56 in [15] (setting [40]); not above 4.70 in assay [16]; not above 4.70 in assay [17] (setting [40]). Moreover, the negative logarithm of the Kd (pKd) in assay [18] (setting [40]), in assay [2] (setting [40]), in assay [19] (setting [40]), in assay [3] (setting [40]), in assay [20] (setting [40]) and in assay [22] (setting [40]) was not above 4.70 in each case. Also, the pKd in assay [23] (setting [40]) and in assay [24] (setting [40]) was not above 4.70 in each case.

For KSALNDFDF, the negative-log Kd (pKd) in assay [10] (setting [42]) is 7.53; in [21] (setting [42]) it was 6.60; in assay [23] (setting [42]) it was 7.57.

In the case of ITGLPPTEW, the pKd in assay [10] (setting [36]) is 8.64; in assay [23] (setting [36]), 7.61.

For the sequence VIYRGTTFA, the pIC50 in assay [5] (setting [37]) is not above 4.15; in assay [25], 5.38; in assay [6] (setting [37]), 4.34; in assay [26] it was 4.42; in [27] (setting [37]), 5.82.

For the sequence WMAPSLTES, the negative-log IC50 (pIC50) in assay [5] (setting [37]) is 4.94; in assay [27] (setting [37]) it was 5.19.

As for IQYPTAWQS, the results for the negative logarithm of the IC50 (pIC50) in assay [5] (setting [37]), in assay [6] (setting [37]) and in assay [27] (setting [37]) were 4.59, 4.48 and 4.51, respectively.

As to ATTFARFLY, the pKd in assay [1] (source organism: Salmonella enterica subsp. enterica serovar Typhi) was 7.71; in [28], 6.70.

FLVINRLGA: the negative logarithm of the IC50 (pIC50) in [5] (setting [43]) was not above 4.06; in [27] (setting [43]) it was 6.10.

As to GLHATFMPK, the values for the pKd in [2] (setting [44]), in assay [3] (setting [44]) and in [4] (source organism: Listeria monocytogenes EGD-e) were 7.43, 8.21 and 6.82, respectively.

On to AQHAPDAAK, for which the results for the negative-log Kd (pKd) in [2] (setting [31]), in [3] (setting [31]) and in assay [4] (source organism: Burkholderia mallei SAVP1) were 5.67, 7.19 and 6.76, respectively.

On to IHYAGWVSL, for which the pKd in assay [12] (setting [45]), in [13] (setting [45]), in [14] (setting [45]), in assay [15] (setting [45]), in [17] (setting [45]) and in [18] (setting [45]) was not above 4.70 each time. Further, the pKd in [2] (setting [45]) is not above 4.70; in assay [19] (setting [45]), 6.49; in assay [3] (setting [45]) it was not above 4.70; in assay [20] (setting [45]), not above 4.70; in assay [22] (setting [45]), not above 4.70; in assay [23] (setting [45]), not above 4.70. The pKd in [24] (setting [45]) is not above 4.70.

TFAEGVVAF: the pIC50 in [5] (setting [37]) is 4.73; in [6] (setting [37]), 6.67.

For ISFQQTNAM, the pIC50 in assay [5] (setting [37]) was 5.21; in assay [6] (setting [37]) it was 5.01; in [26], not above 3.90; in assay [27] (setting [37]), 5.19.

KAVEKGKNW: the negative-log Kd (pKd) in assay [10] (setting [46]) is 7.75; in assay [23] (setting [46]) it was 7.04.

Take LMQSLYDWI: the figures for the negative logarithm of the Kd (pKd) in [11] (setting [35]) and in assay [29] were 7.36 and 7.44, respectively.

For RMGVQMQRF, in assay [11] (source organism: Influenza A virus (A/swine/Hannover/1/1981(H1N1))), the negative-log Kd (pKd) was 6.53.

In the case of REINAHEGQ, the pKd in assay [15] (setting [47]) was 6.83; in assay [18] (setting [47]) it was not above 4.70; in assay [30], not above 4.70.
